Target: JNK-interacting protein 1 (JIP-1) (UniProt Q9WVI9)
Assay: IP-FCM of lysates from OT-I T cells stimulated with OVA-Tet/α-CD28 in the presence of Tat-POSH vs Tat-cont.; competitor for POSH

Chain of JNK-interacting protein 1 (JIP-1) (Q9WVI9 whole entry): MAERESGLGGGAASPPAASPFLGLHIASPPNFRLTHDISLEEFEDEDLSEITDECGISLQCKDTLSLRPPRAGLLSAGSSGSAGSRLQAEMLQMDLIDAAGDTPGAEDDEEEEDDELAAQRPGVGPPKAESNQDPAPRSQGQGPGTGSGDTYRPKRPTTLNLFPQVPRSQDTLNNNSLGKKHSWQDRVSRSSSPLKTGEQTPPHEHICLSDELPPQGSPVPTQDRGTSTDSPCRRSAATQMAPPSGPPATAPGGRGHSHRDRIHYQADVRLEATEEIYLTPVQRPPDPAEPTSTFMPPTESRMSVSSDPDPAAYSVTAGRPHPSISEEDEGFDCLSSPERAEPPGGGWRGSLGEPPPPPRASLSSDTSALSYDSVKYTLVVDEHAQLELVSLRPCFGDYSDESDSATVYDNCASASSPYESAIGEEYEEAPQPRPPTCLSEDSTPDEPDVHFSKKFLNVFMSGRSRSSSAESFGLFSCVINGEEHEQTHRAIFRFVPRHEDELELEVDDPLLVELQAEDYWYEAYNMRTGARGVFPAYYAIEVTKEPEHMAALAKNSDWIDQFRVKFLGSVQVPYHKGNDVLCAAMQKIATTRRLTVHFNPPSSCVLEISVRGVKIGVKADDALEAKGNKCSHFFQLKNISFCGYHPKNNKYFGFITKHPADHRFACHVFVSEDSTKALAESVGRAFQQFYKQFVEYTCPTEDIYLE

Tat-POSH SH3.3 (cell-permeable peptide containing the HIV Tat protein transduction domain fused to the SH3.3 of POSH)
percent of POSH/JIP-1 complexes disrupted: 30%
